Data published in PMC6796883.
pKd: −log10 of the molar value.

Tests used:
Assay in all cases: ITC; 25 °C, MicroCal PEAQ-ITC; 50 μM protein in the cell titrated with 17 injections of 750 μM peptide; in the absence of NAD+; 'one set of binding sites' model
[1] = molecular target: CobBΔ (E. coli CobB residues 38-279) (E. coli) (UniProt P75960)
[2] = molecular target: SIRT1Δ (human SIRT1 NAD+-dependent deacetylase domain 234-510 with C-terminal regulatory region 641-665) (human) (UniProt Q96EB6)
[3] = molecular target: SIRT2Δ (human SIRT2 residues 34-356) (human) (UniProt Q8IXJ6)
[4] = molecular target: SIRT6 (human SIRT6 residues 1-355) (human) (UniProt Q8N6T7)
[5] = molecular target: SIRT5Δ (human SIRT5 residues 34-302) (human) (UniProt Q9NXA8)
Chain of SIRT5Δ (human SIRT5 residues 34-302) (human) (Q9NXA8 34-302, stated change not applied): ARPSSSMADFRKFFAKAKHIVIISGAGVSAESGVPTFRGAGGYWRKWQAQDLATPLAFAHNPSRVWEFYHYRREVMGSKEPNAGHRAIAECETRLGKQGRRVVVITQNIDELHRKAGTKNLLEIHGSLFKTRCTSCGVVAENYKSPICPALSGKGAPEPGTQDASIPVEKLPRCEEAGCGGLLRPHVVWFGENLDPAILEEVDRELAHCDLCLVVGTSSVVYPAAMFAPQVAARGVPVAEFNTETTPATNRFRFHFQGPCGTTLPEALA

Chain of SIRT6 (human SIRT6 residues 1-355) (human) (Q8N6T7 whole entry, the tested form may be a part): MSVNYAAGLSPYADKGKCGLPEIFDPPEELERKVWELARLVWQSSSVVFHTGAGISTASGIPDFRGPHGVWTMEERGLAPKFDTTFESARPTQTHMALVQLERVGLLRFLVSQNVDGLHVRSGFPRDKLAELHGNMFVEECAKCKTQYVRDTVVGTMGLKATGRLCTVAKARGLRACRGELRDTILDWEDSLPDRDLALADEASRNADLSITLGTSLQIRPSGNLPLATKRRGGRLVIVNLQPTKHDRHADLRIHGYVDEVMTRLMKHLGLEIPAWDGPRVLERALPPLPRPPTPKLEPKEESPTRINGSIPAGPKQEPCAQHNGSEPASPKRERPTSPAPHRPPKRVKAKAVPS
Chain of SIRT2Δ (human SIRT2 residues 34-356) (human) (Q8IXJ6 34-356, stated change not applied): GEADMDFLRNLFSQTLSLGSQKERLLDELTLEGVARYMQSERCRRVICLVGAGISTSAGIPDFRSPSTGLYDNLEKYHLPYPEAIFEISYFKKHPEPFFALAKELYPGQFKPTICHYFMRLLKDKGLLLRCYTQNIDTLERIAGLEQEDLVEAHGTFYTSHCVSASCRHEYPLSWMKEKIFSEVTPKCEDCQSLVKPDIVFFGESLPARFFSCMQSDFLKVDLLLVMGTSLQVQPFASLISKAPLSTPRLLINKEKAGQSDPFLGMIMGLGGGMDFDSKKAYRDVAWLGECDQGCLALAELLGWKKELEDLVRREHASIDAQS

pKd [1]	pKd [2]	pKd [3]	pKd [4]	pKd [5]	Substance
6.52	–	–	–	–	histone H3(1-15)K9hex peptide (from UniProt P68431 2-16)
6.10	–	3.98	–	–	histone H3(1-15)K9pr peptide (from UniProt P68431 2-16)
6.70	–	–	6.15	–	histone H3(1-15)K9oct peptide (from UniProt P68431 2-16)
–	–	–	3.99	3.82	histone H3(1-15)K9ac peptide (from UniProt P68431 2-16)

Continued, substance first:

Substance	pKd [1]	pKd [2]	pKd [3]	pKd [4]	pKd [5]
histone H3(1-15)K9dod peptide (from UniProt P68431 2-16)	7.22	5.31	5.16	–	–
histone H3(1-15)K9cr peptide (from UniProt P68431 2-16)	–	4.34	–	–	–
histone H3(1-15)K9bu peptide (from UniProt P68431 2-16)	6.70	–	–	–	–
histone H3(1-15)K9dec peptide (from UniProt P68431 2-16)	6.70	5.15	–	4.26	–
histone H3(1-15)K9myr peptide (from UniProt P68431 2-16)	7.30	–	6.10	–	–
